How the values were obtained:
[1] = molecular target: HSPA8-GST (recombinant full-length monkey HSPA8 with GST tag) (monkey)
[2] = molecular target: HSPA8-GST (recombinant full-length monkey HSPA8 with GST tag) (monkey); remark: listed apart in the source

Substance: PRRSV virions (PRRSV-2 strain BJ-4) (complex)
- PRRSV RNA abundance (RT-qPCR, 24 h) in MARC-145 cells after PRRSV (0.1 MOI) was pre-incubated with soluble HSPA8-GST (0.5, 1, 2 μM); GST protein 2 μM as control [1]: 50 % reduction
- PRRSV infectivity (IFA) in MARC-145 cells whose surface HSPA8 (endogenous) was blocked with 16- and 32-fold diluted mouse HSPA8-GST pAbs [2]: 75 % decrease
- PRRSV titers (TCID50) in MARC-145 cells whose surface HSPA8 (endogenous) was blocked with 16-fold diluted mouse HSPA8-GST pAbs; decrease (log10TCID50/mL) [2]: 1
